# According to article PMC8914840:
# Target: human alpha thrombin (human, UniProt P00734;P00734 328-363;364-622)
# Assay: electrochemical aptamer sensor (square-wave voltammetry); 1-500 nM thrombin; 100 Hz optimal; concentration-dependent peak current decrease; LOD 14.7 nM (not a Kd); Electrodes soaked in PBS before measurement (137 mM NaCl, 2.7 mM KCl, 10 mM Na2HPO4, 1.8 mM KH2PO4, pH 7.4); thrombin assay buffer and temperature not given in
binder,measurement,value
"TAAGTTCATCTCCCCGGTTGGTGTGGTTGGT (structured_DNA, 5' SH-(CH2)6; 3' amine conjugated to arPES) [PES-modified TBA (arPES-TBA)]",binding result,binds
